{
  "source": "patent US20250051463A1",
  "about": "“CD123 ANTIBODY-DRUG CONJUGATES AND METHODS OF USING THE SAME” (ASTRAZENECA AB, priority 2023, published 2025)",
  "system": "healthy donor BMMC",
  "test": "Colony forming unit (CFU) assay",
  "format": "cell-based, human",
  "conditions": "24 hours treatment, colonies at 14 days",
  "protocol": "The potency of HT12-GL ADC (HT12-GL-SG3932) was compared to CD33 Mylotarg ADC and isotype ADC in colony forming unit (CFU) assays. For colony forming unit assays, primary healthy donor samples and AML patient samples were subjected to a dose titration of HT12-GL ADC (HT12-GL-SG3932), Isotype ADC, or Mylotarg for 24 hours. Cells were subsequently mixed in Methocult (StemCell) and seeded in 6-well SmartDish's (StemCell). Colonies were counted at 14 days post-seeding using a STEMvision instrument (StemCell). EC50 values were calculated based on the reduction of colonies following drug treatment compared to control groups.",
  "data": [
    {"substance": "Mylotarg: CD33 ADC Mylotarg [reference compound]", "values": [
      {"measurement": "CFU toxicity in healthy donor BMMC", "value": "toxic"}
    ]}
  ]
}
